According to patent US20220403001A1, “PDE5 DERIVED REGULATORY CONSTRUCTS AND METHODS OF USE IN IMMUNOTHERAPY” (Obsidian Therapeutics, Inc., priority 2018, published 2022):

Legend:
hPDE5 mutants [1] = target: T1, hPDE5 mutants (Homo sapiens, UniProt O76074); test: GFP MFI by FACS in HCT116 cells transduced with hPDE5 constructs; assay type: cell-based; details: hotspot constructs; for Vardenafil Stabilization ratio: 1 μM Vardenafil; for Sildenafil Stabilization ratio: 10 μM Sildenafil; for GFP by FACS, Sildenafil 10 μM / GFP by FACS, Vardenafil 1 μM: HCT116
hPDE5 mutants [2] = test: as above; assay type: cell-based, human; details: hotspot constructs; for Sildenafil Destabilizing mutation coefficient: DMSO control of Sildenafil; for Sildenafil Destabilizing mutation coefficient / Vardenafil Destabilizing mutation coefficient: vs OT-001075; for Vardenafil Destabilizing mutation coefficient: DMSO control of Vardenafil; for GFP by FACS, Sildenafil 0 μM (DMSO): HCT116, DMSO control of Sildenafil; for GFP by FACS, Vardenafil 0 μM (DMSO): HCT116, DMSO control of Vardenafil
hPDE5 mutants [3] = target: T1, hPDE5 mutants; test: Western blot of AcGFP/GFP protein levels in HCT 116 cells expressing hPDE5 mutants; assay type: cell-based; parameters: GFP protein levels (western blot); fused on or other part: AcGFP reporter through a linker; details: vardenafil vs DMSO, HCT 116, R732 mutants
Description: Protein expression analysis of the combination mutants was performed in parallel via western blot. […] GAPDH levels were also analyzed to ensure even protein loading.

Substance | Vardenafil Stabilization ratio (hPDE5 mutants [1]) | Sildenafil Stabilization ratio (hPDE5 mutants [1]) | GFP by FACS, Sildenafil 10 μM (hPDE5 mutants [1]) | GFP by FACS, Vardenafil 1 μM (hPDE5 mutants [1]) | GFP protein levels (western blot) (hPDE5 mutants [3]) | Sildenafil Destabilizing mutation coefficient (hPDE5 mutants [2]) | Vardenafil Destabilizing mutation coefficient (hPDE5 mutants [2]) | GFP by FACS, Sildenafil 0 μM (DMSO) (hPDE5 mutants [2]) | GFP by FACS, Vardenafil 0 μM (DMSO) (hPDE5 mutants [2])
OT-001200: hPDE5 R732Q AcGFP construct | 0.95 | 1.57 | 553 | 289 | strong stabilization of GFP levels | 0.36 | 1.89 | 353 | 305
OT-001202: hPDE5 R732M AcGFP construct | 1.07 | 1.76 | 503 | 337 | strong stabilization of GFP levels | 0.29 | 1.96 | 285 | 316
OT-001203: hPDE5 R732C AcGFP construct | 0.66 | 1.42 | 707 | 349 | strong stabilization of GFP levels | 0.5 | 3.27 | 499 | 526
OT-001204: hPDE5 R732K AcGFP construct | 3.74 | 4.64 | 765 | 423 | Modest ligand dependent stabilization of GFP levels | 0.17 | 0.7 | 165 | 113

Second part, led by results:

Vardenafil Stabilization ratio (hPDE5 mutants [1]) | Sildenafil Stabilization ratio (hPDE5 mutants [1]) | GFP by FACS, Sildenafil 10 μM (hPDE5 mutants [1]) | GFP by FACS, Vardenafil 1 μM (hPDE5 mutants [1]) | GFP protein levels (western blot) (hPDE5 mutants [3]) | Substance | Sildenafil Destabilizing mutation coefficient (hPDE5 mutants [2]) | Vardenafil Destabilizing mutation coefficient (hPDE5 mutants [2]) | GFP by FACS, Sildenafil 0 μM (DMSO) (hPDE5 mutants [2]) | GFP by FACS, Vardenafil 0 μM (DMSO) (hPDE5 mutants [2])
0.77 | 1.07 | 316 | 212 | strong stabilization of GFP levels | OT-001199: hPDE5 R732E AcGFP construct | 0.3 | 1.71 | 295 | 276
0.93 | 1.64 | 516 | 290 | strong stabilization of GFP levels | OT-001201: hPDE5 R732N AcGFP construct | 0.32 | 1.94 | 315 | 313
